{"source": "patent US11472875", "proteins": {"B1": {"name": "human matriptase (protein)", "chain": "GSDEKDCDCGLRSFTRQARVVGGTDADEGEWPWQVSLHALGQGHICGASLISPNWLVSAAHCYIDDRGFRYSDPTQWTAFLGLHDQSQRSAPGVQERRLKRIISHPFFNDFTFDYDIALLELEKPAEYSSMVRPICLPDASHVFPAGKAIWVTGWGHTQYGGTGALILQKGEIRVINQTTCENLLPQQITPRMMCVGFLSGGVDSCQGDSGGPLSSVEADGRIFQAGVVSWGDGCAQRNKPGVYTRLPLFRDWIKENTGV"}}, "key": {"[1]": {"target": "anti-EGFR activatable antibodies comprising substrates 2001, 2006-2010 and 2012"}, "CM1-CM2 substrate 2003": {"target": "T1, CM1-CM2 substrate 2003", "T1 chain": "ISSGLLSGRSANPRG"}, "CM1-CM2 substrate 2005": {"target": "T2, CM1-CM2 substrate 2005", "T2 chain": "AVGLLAPPSGRSANPRG"}}}
{"protein": "B1", "values": [{"measurement": "kcat/Km", "setting": "[1]", "result": "a range of kcat/Km values ranging from 6E+02 to 2E+04"}, {"measurement": "cleavage kinetics, fold increase as compared to substrate 2001", "setting": "CM1-CM2 substrate 2003", "result": "approximately a 50-fold increase"}, {"measurement": "cleavage kinetics, fold increase as compared to substrate 1004/LP′/0001", "setting": "CM1-CM2 substrate 2005", "result": "approximately a 50-fold increase"}]}
